Measurements: patent US8691189B2, “Method of colorectal cancer detection by using radiolabeled anti-GRP78 peptide” (Institute of Nuclear Energy Research, Atomic Energy Council, priority 2011, dated 2014)
Where no end group is shown, it is not given here.

Molecular target: T1, GRP78 (Mus musculus, UniProt P20029)
T1 construct: endogenous in cells; CT26 named for the mouse model
Test: Immunofluorescence cell staining of colorectal cancer cells
Assay type: cell-based
Settings: FITC-labeled, 1:50, 4° C. overnight, FIG. 3
Method: (A) Immunofluorescence cell staining 4: • (A1) Cell culturing 40: • I. A few colorectal cancer cells are cultured in a RPMI1640 of 10% fetal bovine serum (FBS) (containing 2 mM glutamine, penicillin (100 U/ml) and streptomycin ([…])). • II. The cells are put in a culture chamber having 5% CO2 at 37° C. • III. After being fully grown, the cells adhered on culture dishes are reacted with 0.05% Trypsin and are washed down. • IV. The cells washed down are further washed with a Hank's balanced salts solution. • V. The washed cells are obtained at a number about 1×10^4 to be put into a chamber slide having eight individual sections for further culturing. • VI. […] The sliced tissues are washed with a normal saline solution for 3 times each time for 5 minutes. • (A4) Fluorescence microscopy observation 43: • I. The sliced tissues are fully dried for observation with a microscope. • II. […] A fluorescence image is captured with a digital camera device. • IV. An image of the cells is captured under a visible light as a reference to the fluorescence image.
(A) Fluorescence immunoassay 7: • (A1) Fluorescence immunoassay of colorectal cancer 71: • As modern studies show, colorectal cancer cells and tissues show a lot of GRP78. […] As a result, the anti-GRP78 peptide is able to detect expression of GRP78 in colorectal cancer cell. • (A2) Fluorescence immunoassay of colorectal cancer tissue 72: […]

T1 sequence (P20029 20-655): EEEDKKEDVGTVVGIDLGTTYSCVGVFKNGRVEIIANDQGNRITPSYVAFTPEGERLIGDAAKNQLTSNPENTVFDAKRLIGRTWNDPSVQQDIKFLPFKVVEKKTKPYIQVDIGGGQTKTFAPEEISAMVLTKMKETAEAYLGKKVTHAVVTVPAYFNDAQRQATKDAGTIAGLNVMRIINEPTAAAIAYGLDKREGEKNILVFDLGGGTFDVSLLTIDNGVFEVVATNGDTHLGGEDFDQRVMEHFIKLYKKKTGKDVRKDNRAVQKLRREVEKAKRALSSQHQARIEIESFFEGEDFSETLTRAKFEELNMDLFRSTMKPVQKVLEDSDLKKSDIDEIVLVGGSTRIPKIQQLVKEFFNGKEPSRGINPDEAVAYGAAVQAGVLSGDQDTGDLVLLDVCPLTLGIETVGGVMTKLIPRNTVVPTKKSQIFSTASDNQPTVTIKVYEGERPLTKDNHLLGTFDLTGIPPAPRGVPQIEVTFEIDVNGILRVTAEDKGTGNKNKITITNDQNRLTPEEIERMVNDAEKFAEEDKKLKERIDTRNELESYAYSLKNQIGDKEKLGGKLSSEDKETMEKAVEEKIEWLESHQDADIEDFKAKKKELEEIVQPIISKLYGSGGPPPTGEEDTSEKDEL

Substance | fluorescence expression (detection of GRP78 expression in colorectal cancer cell)
YIFPYIELC [anti-GRP78 peptide] | obvious fluorescence expression
fluorescein isothiocyanate [pure FITC] | no fluorescence expression
